Measured values as given in publication PMC9054013, “FCHO controls AP2’s initiating role in endocytosis through a PtdIns(4,5)P2-dependent switch” (Science Advances, 2022).
Where “and” joins values, the source holds several entries; their conditions need not be identical. Equal entries are not always repeated.

What was measured:
[1] = target: AP2 core; assay: BLI of AP2 core binding to immobilized GST-FCHO linkers; conditions: BLI equilibrium analysis, GST-linker on anti-GST biosensors, 25°C, near-physiological conditions, AP2 core closed
Description: Real-time kinetic measurements of AP2 core binding to immobilized GST-FCHO1 linker and GST-FCHO2 linker at 25°C were conducted using an Octet RED96 (Pall FortéBio). AP2 concentrations varied by twofold dilution series (13.5 to 0.8 and 10.0 to 0.2 μM, respectively). Samples and buffers were dispensed into 96-well microtiter plates (Greiner) at a volume of 200 μl per well. Anti-GST biosensors (Pall FortéBio) were incubated in the specific assay buffer for at least 30 min before loading with the appropriate GST-FCHO linker for 5 min, followed by blocking with GST-ARRS control for 10 min. Negative controls were analyzed with biosensors uniquely loaded with the GST-ARRS control. Every binding experiment consisted of three steps: incubation for 10 min in the specific assay buffer, followed by 15 min of incubation with AP2 in the same buffer (association phase), and then by 10 min of incubation with the same buffer without AP2 to measure AP2 off rate (dissociation phase). […]
Data were processed with the Octet Data Acquisition 7.0 software, individually fitted using ForteBio Analysis software 7.0, and subsequently further analyzed with the PRISM software (GraphPad) to determine equilibrium dissociation constants (KD). The maximum binding capacity of each biosensor was scaled with respect to each other, according to the molecular weight of the AP2 analyzed.

[2] = system: AP2 core; assay: Liposome spin-downs / GSH Sepharose pull-down of AP2 core with GST-FCHO2 linker; assay type: biochemical; conditions: for increase in steady-state efficiency of AP2 membrane recruitment: GST-FCHO2 vs GST-ARRS control, densitometry, 3 independent experiments
Description: GST-FCHO2 WT linker or a nonbinding control (GST-ARRS control) at a final concentration of 30 μM was incubated at 4°C for 30 min with AP2 core at a concentration of 2.5 μM, in 95% HKT buffer with lysozyme (0.2 mg/ml) as a “carrier,” AEBSF (25 μg/ml), and 5 mM DTT. Core buffer (contributed by the purified AP2) was restricted to 5% of the volume. The mixture was then centrifuged briefly to remove any insoluble material. Samples were removed and added to either an equal volume of liposomes [containing phosphatidylcholine (PC)/phosphatidylethanolamine (PE), PC/PE/PS/PtdIns(4,5)P2, or PC/PE/PS/ PtdIns(4,5)P2/TGN38] or an equal bed volume of GSH Sepharose beads prewashed into HKT buffer. Final concentrations were therefore 15 μM (GST-FCHO2/ARRS) and 1.25 μM AP2. The mixtures were incubated for 30 min at 21°C with continuous gentle inversion, then the liposomes were pelleted by centrifugation, supernatants were removed, and the pellets resuspended in an equal volume before the addition of SDS loading dye and analysis by SDS-PAGE. The GSH Sepharose beads were washed three times with 1 ml of HKT supplemented with lysozyme (0.2 mg/ml), AEBSF (25 μg/ml), and 5 mM DTT, then resuspended in the same buffer, and analyzed by SDS-PAGE. All experiments were done in triplicate.

B1: FCHO1 linker: FCHO1 interdomain linker wt (N123C), residues 316 to 444, GST fusion (protein)
chain: TCPEVDEEGFTVRPDVTQNSTAEPSRFSSSDSDFDDEEPRKFYVHIKPAPARAPACSPEAAAAQLRATAGSLILPPGPGGTMKRHSSRDAAGKPQRPRSAPRTSSCAERLQSEEQVSKNLFGPPLESAF
modifications: left off: GST, end not stated, kept
notes: FCHO1 interdomain linker wt (N123C), residues 316 to 444, GST fusion
[1]
  Kd: ~10 µM and 8.5 µM

B2: FCHO2 linker: FCHO2 interdomain linker wt, residues 314 to 444, GST fusion (protein)
chain: NIPDVDEEGYSIKPETNQNDTKENHFYSSSDSDSEDEEPKKYRIEIKPMHPNNSHHTMASLDELKVSIGNITLSPAISRHSPVQMNRNLSNEELTKSKPSAPPNEKGTSDLLAWDPLFGPSLDSSSSSSLT
modifications: left off: GST, end not stated, kept
notes: FCHO2 interdomain linker wt, residues 314 to 444, GST fusion
[2]; GST-FCHO2 linker 15 μM, AP2 core 1.25 μM, three independent experiments
  ratio of FCHO2:AP2 on beads relative to PtdIns(4,5)P2-containing liposomes: ~ 20 fold
[2]; PtdIns(4,5)P2-only liposomes
  increase in steady-state efficiency of AP2 membrane recruitment: ~ 13%
[2]; liposomes containing both PtdIns(4,5)P2 and cargo
  increase in steady-state efficiency of AP2 membrane recruitment: ~ 22%
[1]
  Kd: ~10 µM and 9.8 µM
